Source: the RNAGym collection of RNA variant scans (doi:10.1093/molbev/msab373)

B1: Azoarcus group I ribozyme (parent)
chain: GUGCCUUGCGCCGGGAAACCACGCAAGGGAUGGUGUCAAAUUCGGCGAAACCUAAGCGCCCGCCCGGGCGUAUGGCAACGCCGAGCCAAGCUUCGGCGCCUGCGCCGAUGAAGGUGUAGAGACUAGACGGCACCCACCUAAGGCAAACGCUAUGGUGAAGGCAUAGUCCAGGGAGUGGCGAAAGUCACACAAACCGG

Variants of: B1
Assay: reverse-splicing fitness (ratio to wild type); higher = more active; in vitro selection; Mg2+ level not given
How it was run: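 An in vitro group I ribozyme library with randomized positions was T7-transcribed and gel-purified. In triplicate, 10 pmol RNA in EPPS pH 7.5 was reacted with 50 pmoles of a 30-nt RNA substrate for 1 h at 37 °C across several added MgCl2 levels (1–48 mM), then stopped with EDTA. Products were reverse transcribed from a substrate-complementary primer, PCR-amplified and sequenced (HiSeq 4000). Fitness is a variant's read proportion after selection over that before, normalised to wild type.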

Variant | reverse-splicing fitness
C150G C169U | 0.0492
C150G C169A | 0.02
C150G C169G | 0.0309
C150U C169U U176G | 0.0109
C150U C169U U176A | 0.0877
C150U C169U U176C | 0.128
C150A C169G U176C | 0.0327
C150A C169G U176A | 0.026
C150A C169G U176G | 0.00565
C150A C169U | 0.061
C150A C169A | 0.0251
C150A C169G | 0.0379
C150U C169G U176A | 0.0516
C150U C169G U176G | 0.0074
C150U C169G U176C | 0.0925
C150A U176A | 0.406
C150A U176C | 0.398
C150A U176G | 0.185
C169U U176A | 0.114
C169U U176G | 0.0131
C169U U176C | 0.182
C150G C169A U176A | 0.0121

Variant | reverse-splicing fitness
C150G C169A U176G | 0.00618
C150G C169A U176C | 0.0144
C150A C169U U176C | 0.0421
C150A C169U U176A | 0.0369
C150A C169U U176G | 0.00737
C169G U176A | 0.0721
C169G U176G | 0.00806
C169G U176C | 0.137
C150U C169A | 0.0973
C150U C169G | 0.172
C150U C169U | 0.247
C150A C169A U176G | 0.00665
C150A C169A U176C | 0.0227
C150A C169A U176A | 0.0214
U176G | 0.348
U176A | 0.87
U176C | 0.815
C169A U176A | 0.0336
C169A U176G | 0.0054
C169A U176C | 0.0638
C150G C169G U176C | 0.0077
C150G C169G U176A | 0.00867

Variant | reverse-splicing fitness
C150G C169G U176G | 0.0051
C150G C169U U176G | 0.00596
C150G C169U U176A | 0.0131
C150G C169U U176C | 0.0326
C150G U176G | 0.0576
C150G U176C | 0.286
C150G U176A | 0.219
A145U U176G | 0.462
A145U U176C | 0.911
C169G | 0.323
C169A | 0.18
C169U | 0.407
C150U C169A U176C | 0.0431
C150U C169A U176A | 0.0259
C150U C169A U176G | 0.00623
C150G | 0.42
C150U | 0.878
C150A | 0.484
C150U U176A | 0.814
C150U U176C | 0.869
C150U U176G | 0.306
